# Data reported in IntAct's records for PubMed 16501113.
# B1: Probable early E4 11 kDa protein (Human adenovirus C serotype 5 (HAdV-5)), P04489 (parent)
# chain: MIRCLRLKVEGALEQIFTMAGLNIRDLLRDILRRWRDENYLGMVEGAGMFIEEIHPEGFSLYVHLDVRAVCLLEAIVQHLTNAIICSLAVEFDHATGGERVHLIDLHFEVLDNLLE
# Variants of: B1
# Conditions: with PML
row,Variant,effect of a mutation on the interaction
1,L103A,disrupting interaction

# Variants of: B1
# Conditions: with PML
# Remark: another data set of the same source
row,Variant,effect of a mutation on the interaction
1,E10A,decreasing interaction
2,E74A,decreasing interaction
3,C4A,decreasing interaction
4,N82A,disrupting interaction
